According to IntAct's records for PubMed 16697956:

B1: Bcl-2-like protein 2 (Homo sapiens), Q92843 (parent)
chain: MATPASAPDTRALVADFVGYKLRQKGYVCGAGPGEGPAADPLHQAMRAAGDEFETRFRRTFSDLAAQLHVTPGSAQQRFTQVSDELFQGGPNWGRLVAFFVFGAALCAESVNKEMEPLVGQVQEWMVAYLETQLADWIHSSGGWAEFTALYGDGALEEARRLREGNWASVRTVLTGAVALGALVTVGAFFASK
B2: BH3-interacting domain death agonist (Homo sapiens), P55957 (parent)
chain: MDCEVNNGSSLRDECITNLLVFGFLQSCSDNSFRRELDALGHELPVLAPQWEGYDELQTDGNRSSHSRLGRIEADSESQEDIIRNIARHLAQVGDSMDRSIPPGLVNGLALQLRNTSRSEEDRNRDLATALEQLLQAYPRDMEKEKTMLVLALLLAKKVASHTPSLLRDVFHTTVNFINQNLRTYVRSLARNGMD
partner: B1 chain
B3: BH3-interacting domain death agonist (Homo sapiens), P55957 (parent)
chain: B2 chain
partner: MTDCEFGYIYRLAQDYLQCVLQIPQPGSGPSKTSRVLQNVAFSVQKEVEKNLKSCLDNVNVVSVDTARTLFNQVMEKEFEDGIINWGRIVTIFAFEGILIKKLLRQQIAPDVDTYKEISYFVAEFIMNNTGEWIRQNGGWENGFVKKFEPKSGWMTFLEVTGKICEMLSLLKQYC
B4: BH3-interacting domain death agonist (Homo sapiens), P55957 (parent)
chain: B2 chain

Variants of: B1
Conditions: with bid_mouse Bid

Variant | effect of a mutation on the interaction
MATPASAPDTRALVADFVGYKLRQKGYVCGAGPGEGPAADPLHQAMRAAGDEFETRFRRTFSDLAAQLHVTPGSAQQRFTQVSDELFQGGPNWGPLVAFFVFGAALCAESVNKEMEPLVGQVQEWMVAYLETQLADWIHSSGGWAEFTALYGDGALEEARRLREGNWASVRTVLTGAVALGALVTVGAFFASK [R95P] | disrupting interaction

Variants of: B2
Conditions: with BCL2L2, Q92843

Variant | effect of a mutation on the interaction
MDCEVNNGSSLRDECITNLLVFGFLQSCSDNSFRRELDALGHELPVLAPQWEGYDELQTDGNRSSHSRLGRIEADSESQEDIIRNIARHAAQVGASMDRSIPPGLVNGLALQLRNTSRSEEDRNRDLATALEQLLQAYPRDMEKEKTMLVLALLLAKKVASHTPSLLRDVFHTTVNFINQNLRTYVRSLARNGMD [L90A;D95A] | disrupting interaction

Variants of: B3
Conditions: with BCL2A1, Q16548

Variant | effect of a mutation on the interaction
MDCEVNNGSSLRDECITNLLVFGFLQSCSDNSFRRELDALGHELPVLAPQWEGYDELQTDGNRSSHSRLGRIEADSESQEDIIRNIARHAAQVGASMDRSIPPGLVNGLALQLRNTSRSEEDRNRDLATALEQLLQAYPRDMEKEKTMLVLALLLAKKVASHTPSLLRDVFHTTVNFINQNLRTYVRSLARNGMD [L90A;D95A] | disrupting interaction

Variants of: B4
Conditions: with bcl2_human BCL2, P10415
Sequence of bcl2_human BCL2, P10415 (P10415 whole entry): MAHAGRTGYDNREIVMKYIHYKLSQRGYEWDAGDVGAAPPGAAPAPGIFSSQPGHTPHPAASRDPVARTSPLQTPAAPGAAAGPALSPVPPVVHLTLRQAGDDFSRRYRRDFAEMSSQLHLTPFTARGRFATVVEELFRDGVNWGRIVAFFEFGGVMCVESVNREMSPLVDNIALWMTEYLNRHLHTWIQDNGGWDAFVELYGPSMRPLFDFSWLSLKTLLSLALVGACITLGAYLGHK

Variant | effect of a mutation on the interaction
MDCEVNNGSSLRDECITNLLVFGFLQSCSDNSFRRELDALGHELPVLAPQWEGYDELQTDGNRSSHSRLGRIEADSESQEDIIRNIARHAAQVGASMDRSIPPGLVNGLALQLRNTSRSEEDRNRDLATALEQLLQAYPRDMEKEKTMLVLALLLAKKVASHTPSLLRDVFHTTVNFINQNLRTYVRSLARNGMD [L90A;D95A] | disrupting interaction

Variants of: B4
Conditions: with BCL2L1, Q07817
Sequence of BCL2L1, Q07817 (Q07817 whole entry): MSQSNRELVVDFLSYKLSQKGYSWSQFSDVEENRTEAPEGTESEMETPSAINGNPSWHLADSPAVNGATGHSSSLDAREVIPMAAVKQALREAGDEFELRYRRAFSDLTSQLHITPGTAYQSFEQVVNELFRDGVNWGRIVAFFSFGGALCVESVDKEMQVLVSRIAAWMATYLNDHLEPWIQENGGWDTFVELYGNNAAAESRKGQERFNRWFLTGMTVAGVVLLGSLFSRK

Variant | effect of a mutation on the interaction
MDCEVNNGSSLRDECITNLLVFGFLQSCSDNSFRRELDALGHELPVLAPQWEGYDELQTDGNRSSHSRLGRIEADSESQEDIIRNIARHAAQVGASMDRSIPPGLVNGLALQLRNTSRSEEDRNRDLATALEQLLQAYPRDMEKEKTMLVLALLLAKKVASHTPSLLRDVFHTTVNFINQNLRTYVRSLARNGMD [L90A;D95A] | disrupting interaction

Variants of: B4
Conditions: with mcl1_human MCL1, Q07820
Sequence of mcl1_human MCL1, Q07820 (Q07820 whole entry): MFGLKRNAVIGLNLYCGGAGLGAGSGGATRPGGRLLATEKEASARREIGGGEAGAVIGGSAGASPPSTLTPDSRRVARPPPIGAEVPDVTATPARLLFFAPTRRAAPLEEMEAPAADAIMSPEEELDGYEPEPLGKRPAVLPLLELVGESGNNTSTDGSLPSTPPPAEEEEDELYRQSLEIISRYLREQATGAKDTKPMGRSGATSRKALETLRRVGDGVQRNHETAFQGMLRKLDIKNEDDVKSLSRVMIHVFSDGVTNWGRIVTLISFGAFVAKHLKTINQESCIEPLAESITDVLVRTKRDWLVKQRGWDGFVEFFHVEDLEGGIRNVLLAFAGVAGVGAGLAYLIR

Variant | effect of a mutation on the interaction
MDCEVNNGSSLRDECITNLLVFGFLQSCSDNSFRRELDALGHELPVLAPQWEGYDELQTDGNRSSHSRLGRIEADSESQEDIIRNIARHAAQVGASMDRSIPPGLVNGLALQLRNTSRSEEDRNRDLATALEQLLQAYPRDMEKEKTMLVLALLLAKKVASHTPSLLRDVFHTTVNFINQNLRTYVRSLARNGMD [L90A;D95A] | disrupting interaction
